Experimental findings from ChEMBL document CHEMBL3526024, “Oral availability of cefadroxil depends on ABCC3 and ABCC4” (Drug Metab Dispos, 2012) are described below.

Substrate in series [1]: CC1=C(C(=O)O)N2C(=O)[C@@H](NC(=O)[C@H](N)c3ccc(O)cc3)[C@H]2SC1
As to the kind of experiment: Activity of recombinant human ABCC3 expressed in baculovirus infected insect Sf21 cell plasma membrane vesicles assessed as transporter-mediated drug uptake by liquid scintillation counting analysis in presence of ATP. The class given is ADME.

Substrate in series [2]: CC1=C(C(=O)O)N2C(=O)[C@@H](NC(=O)[C@H](N)c3ccc(O)cc3)[C@H]2SC1
As to the kind of experiment: Activity of recombinant human ABCC1 expressed in baculovirus infected insect Sf21 cell plasma membrane vesicles assessed as transporter-mediated drug uptake by liquid scintillation counting analysis in presence of ATP. It counts as ADME.

Substrate in series [3]: Cc1nnc(SCC2=C(C(=O)O)N3C(=O)[C@@H](NC(=O)Cn4cnnn4)[C@H]3SC2)s1
As to the kind of experiment: (§1) Activity of recombinant human MRP4 expressed in adenovirus infected HEK293 cell plasma membrane vesicles assessed as transporter-mediated drug uptake after 2 mins by Michaelis-Menten plot analysis in presence of ATP. It counts as ADME, cell-based.

Substrate in series [4]: CO/N=C(\C(=O)N[C@@H]1C(=O)N2C(C(=O)O)=CCS[C@H]12)c1csc(N)n1
The description is as §1. The class given is ADME, cell-based.

Substrate in series [5]: CC1=C(C(=O)O)N2C(=O)[C@@H](NC(=O)[C@H](N)c3ccc(O)cc3)[C@H]2SC1
As to the kind of experiment: Activity of recombinant human ABCC4 expressed in baculovirus infected insect Sf21 cell plasma membrane vesicles assessed as transporter-mediated drug uptake by liquid scintillation counting analysis in presence of ATP. The class given is ADME.

In general, Km refers to the substrate concentration at which the rate is half of its maximum. What is called Vmax is the rate approached at saturating substrate.

B1: ATP-binding cassette sub-family C member 3 (Homo sapiens) (protein)
chain: MDALCGSGELGSKFWDSNLSVHTENPDLTPCFQNSLLAWVPCIYLWVALPCYLLYLRHHCRGYIILSHLSKLKMVLGVLLWCVSWADLFYSFHGLVHGRAPAPVFFVTPLVVGVTMLLATLLIQYERLQGVQSSGVLIIFWFLCVVCAIVPFRSKILLAKAEGEISDPFRFTTFYIHFALVLSALILACFREKPPFFSAKNVDPNPYPETSAGFLSRLFFWWFTKMAIYGYRHPLEEKDLWSLKEEDRSQMVVQQLLEAWRKQEKQTARHKASAAPGKNASGEDEVLLGARPRPRKPSFLKALLATFGSSFLISACFKLIQDLLSFINPQLLSILIRFISNPMAPSWWGFLVAGLMFLCSMMQSLILQHYYHYIFVTGVKFRTGIMGVIYRKALVITNSVKRASTVGEIVNLMSVDAQRFMDLAPFLNLLWSAPLQIILAIYFLWQNLGPSVLAGVAFMVLLIPLNGAVAVKMRAFQVKQMKLKDSRIKLMSEILNGIKVLKLYAWEPSFLKQVEGIRQGELQLLRTAAYLHTTTTFTWMCSPFLVTLITLWVYVYVDPNNVLDAEKAFVSVSLFNILRLPLNMLPQLISNLTQASVSLKRIQQFLSQEELDPQSVERKTISPGYAITIHSGTFTWAQDLPPTLHSLDIQVPKGALVAVVGPVGCGKSSLVSALLGEMEKLEGKVHMKGSVAYVPQQAWIQNCTLQENVLFGKALNPKRYQQTLEACALLADLEMLPGGDQTEIGEKGINLSGGQRQRVSLARAVYSDADIFLLDDPLSAVDSHVAKHIFDHVIGPEGVLAGKTRVLVTHGISFLPQTDFIIVLADGQVSEMGPYPALLQRNGSFANFLCNYAPDEDQGHLEDSWTALEGAEDKEALLIEDTLSNHTDLTDNDPVTYVVQKQFMRQLSALSSDGEGQGRPVPRRHLGPSEKVQVTEAKADGALTQEEKAAIGTVELSVFWDYAKAVGLCTTLAICLLYVGQSAAAIGANVWLSAWTNDAMADSRQNNTSLRLGVYAALGILQGFLVMLAAMAMAAGGIQAARVLHQALLHNKIRSPQSFFDTTPSGRILNCFSKDIYVVDEVLAPVILMLLNSFFNAISTLVVIMASTPLFTVVILPLAVLYTLVQRFYAATSRQLKRLESVSRSPIYSHFSETVTGASVIRAYNRSRDFEIISDTKVDANQRSCYPYIISNRWLSIGVEFVGNCVVLFAALFAVIGRSSLNPGLVGLSVSYSLQVTFALNWMIRMMSDLESNIVAVERVKEYSKTETEAPWVVEGSRPPEGWPPRGEVEFRNYSVRYRPGLDLVLRDLSLHVHGGEKVGIVGRTGAGKSSMTLCLFRILEAAKGEIRIDGLNVADIGLHDLRSQLTIIPQDPILFSGTLRMNLDPFGSYSEEDIWWALELSHLHTFVSSQPAGLDFQCSEGGENLSVGQRQLVCLARALLRKSRILVLDEATAAIDLETDNLIQATIRTQFDTCTVLTIAHRLNTIMDYTRVLVLDKGVVAEFDSPANLIAARGIFYGMARDAGLA
B1: in series [1], the Michaelis constant (Km) turned out to be 2500 µM and the Vmax stood at 0.0006 µmol/min.

B2: Multidrug resistance-associated protein 1 (Homo sapiens) (protein)
chain: MALRGFCSADGSDPLWDWNVTWNTSNPDFTKCFQNTVLVWVPCFYLWACFPFYFLYLSRHDRGYIQMTPLNKTKTALGFLLWIVCWADLFYSFWERSRGIFLAPVFLVSPTLLGITMLLATFLIQLERRKGVQSSGIMLTFWLVALVCALAILRSKIMTALKEDAQVDLFRDITFYVYFSLLLIQLVLSCFSDRSPLFSETIHDPNPCPESSASFLSRITFWWITGLIVRGYRQPLEGSDLWSLNKEDTSEQVVPVLVKNWKKECAKTRKQPVKVVYSSKDPAQPKESSKVDANEEVEALIVKSPQKEWNPSLFKVLYKTFGPYFLMSFFFKAIHDLMMFSGPQILKLLIKFVNDTKAPDWQGYFYTVLLFVTACLQTLVLHQYFHICFVSGMRIKTAVIGAVYRKALVITNSARKSSTVGEIVNLMSVDAQRFMDLATYINMIWSAPLQVILALYLLWLNLGPSVLAGVAVMVLMVPVNAVMAMKTKTYQVAHMKSKDNRIKLMNEILNGIKVLKLYAWELAFKDKVLAIRQEELKVLKKSAYLSAVGTFTWVCTPFLVALCTFAVYVTIDENNILDAQTAFVSLALFNILRFPLNILPMVISSIVQASVSLKRLRIFLSHEELEPDSIERRPVKDGGGTNSITVRNATFTWARSDPPTLNGITFSIPEGALVAVVGQVGCGKSSLLSALLAEMDKVEGHVAIKGSVAYVPQQAWIQNDSLRENILFGCQLEEPYYRSVIQACALLPDLEILPSGDRTEIGEKGVNLSGGQKQRVSLARAVYSNADIYLFDDPLSAVDAHVGKHIFENVIGPKGMLKNKTRILVTHSMSYLPQVDVIIVMSGGKISEMGSYQELLARDGAFAEFLRTYASTEQEQDAEENGVTGVSGPGKEAKQMENGMLVTDSAGKQLQRQLSSSSSYSGDISRHHNSTAELQKAEAKKEETWKLMEADKAQTGQVKLSVYWDYMKAIGLFISFLSIFLFMCNHVSALASNYWLSLWTDDPIVNGTQEHTKVRLSVYGALGISQGIAVFGYSMAVSIGGILASRCLHVDLLHSILRSPMSFFERTPSGNLVNRFSKELDTVDSMIPEVIKMFMGSLFNVIGACIVILLATPIAAIIIPPLGLIYFFVQRFYVASSRQLKRLESVSRSPVYSHFNETLLGVSVIRAFEEQERFIHQSDLKVDENQKAYYPSIVANRWLAVRLECVGNCIVLFAALFAVISRHSLSAGLVGLSVSYSLQVTTYLNWLVRMSSEMETNIVAVERLKEYSETEKEAPWQIQETAPPSSWPQVGRVEFRNYCLRYREDLDFVLRHINVTINGGEKVGIVGRTGAGKSSLTLGLFRINESAEGEIIIDGINIAKIGLHDLRFKITIIPQDPVLFSGSLRMNLDPFSQYSDEEVWTSLELAHLKDFVSALPDKLDHECAEGGENLSVGQRQLVCLARALLRKTKILVLDEATAAVDLETDDLIQSTIRTQFEDCTVLTIAHRLNTIMDYTRVIVLDKGEIQEYGAPSDLLQQRGLFYSMAKDAGLV
Consider B2, for which, in series [2], the Michaelis constant (Km) came to 3900 µM and the Vmax stood at 0.0124 µmol/min.

B3: ATP-binding cassette sub-family C member 4 (Homo sapiens) (protein)
chain: MLPVYQEVKPNPLQDANLCSRVFFWWLNPLFKIGHKRRLEEDDMYSVLPEDRSQHLGEELQGFWDKEVLRAENDAQKPSLTRAIIKCYWKSYLVLGIFTLIEESAKVIQPIFLGKIINYFENYDPMDSVALNTAYAYATVLTFCTLILAILHHLYFYHVQCAGMRLRVAMCHMIYRKALRLSNMAMGKTTTGQIVNLLSNDVNKFDQVTVFLHFLWAGPLQAIAVTALLWMEIGISCLAGMAVLIILLPLQSCFGKLFSSLRSKTATFTDARIRTMNEVITGIRIIKMYAWEKSFSNLITNLRKKEISKILRSSCLRGMNLASFFSASKIIVFVTFTTYVLLGSVITASRVFVAVTLYGAVRLTVTLFFPSAIERVSEAIVSIRRIQTFLLLDEISQRNRQLPSDGKKMVHVQDFTAFWDKASETPTLQGLSFTVRPGELLAVVGPVGAGKSSLLSAVLGELAPSHGLVSVHGRIAYVSQQPWVFSGTLRSNILFGKKYEKERYEKVIKACALKKDLQLLEDGDLTVIGDRGTTLSGGQKARVNLARAVYQDADIYLLDDPLSAVDAEVSRHLFELCICQILHEKITILVTHQLQYLKAASQILILKDGKMVQKGTYTEFLKSGIDFGSLLKKDNEESEQPPVPGTPTLRNRTFSESSVWSQQSSRPSLKDGALESQDTENVPVTLSEENRSEGKVGFQAYKNYFRAGAHWIVFIFLILLNTAAQVAYVLQDWWLSYWANKQSMLNVTVNGGGNVTEKLDLNWYLGIYSGLTVATVLFGIARSLLVFYVLVNSSQTLHNKMFESILKAPVLFFDRNPIGRILNRFSKDIGHLDDLLPLTFLDFIQTLLQVVGVVSVAVAVIPWIAIPLVPLGIIFIFLRRYFLETSRDVKRLESTTRSPVFSHLSSSLQGLWTIRAYKAEERCQELFDAHQDLHSEAWFLFLTTSRWFAVRLDAICAMFVIIVAFGSLILAKTLDAGQVGLALSYALTLMGMFQWCVRQSAEVENMMISVERVIEYTDLEKEAPWEYQKRPPPAWPHEGVIIFDNVNFMYSPGGPLVLKHLTALIKSQEKVGIVGRTGAGKSSLISALFRLSEPEGKIWIDKILTTEIGLHDLRKKMSIIPQEPVLFTGTMRKNLDPFNEHTDEELWNALQEVQLKETIEDLPGKMDTELAESGSNFSVGQRQLVCLARAILRKNQILIIDEATANVDPRTDELIQKKIREKFAHCTVLTIAHRLNTIIDSDKIMVLDSGRLKEYDEPYVLLQNKESLFYKMVQQLGKAEAAALTETAKQVYFKRNYPHIGHTDHMVTNTSNGQPSTLTIFETAL
B3: the Michaelis-Menten constant (Km) in series [3] worked out at 81 µM; in series [4], 18 µM; in series [5], 250 µM. The Vmax in series [5] turned out to be 0.0012 µmol/min.
